Experimental findings from US20190276521A1 (Kyowa Kirin, published 2019) are described below.

Some results are limits rather than exact numbers.

Experiment [1] deals with histidine tag-conjugated soluble CD16a (V) (human) (UniProt P08637). Briefly: ELISA, soluble CD16a-His captured by anti-Tetra-His antibody, anti-human IgG-HRP detection.
Experiment [2] deals with full-length CD16a (V) expressed on CHO/DG44 cells (human) (UniProt P08637). Briefly: flow cytometry competition on CD16a-expressing CHO/DG44 cells; competitor: anti-DNP antibody complexed with DNP-BSA-biotin. (In general: In flow cytometry, cells or beads pass a laser one at a time.)
The target in experiment [3] is T1, Chimera A (human with bovine residues, UniProt P00738 19-406).
T1 construct: α and β linked by a disulfide bond; Expi293F; also called human Hp/bovine Hp chimeric protein
T1 chain: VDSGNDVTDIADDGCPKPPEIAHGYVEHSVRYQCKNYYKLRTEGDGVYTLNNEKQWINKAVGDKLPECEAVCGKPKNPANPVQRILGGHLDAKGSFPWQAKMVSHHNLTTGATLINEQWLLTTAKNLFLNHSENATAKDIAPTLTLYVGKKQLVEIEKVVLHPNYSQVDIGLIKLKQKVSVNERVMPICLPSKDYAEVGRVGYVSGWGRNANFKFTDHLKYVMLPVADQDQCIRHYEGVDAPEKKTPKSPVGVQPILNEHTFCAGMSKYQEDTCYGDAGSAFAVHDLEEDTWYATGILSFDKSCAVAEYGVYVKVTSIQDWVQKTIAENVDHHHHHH
As to the kind of experiment: ELISA on plate-coated antigen (-: absorbance ratio less than 0.5). The protocol: (§1) The chimeras A to F, the recombinant human Hp and bovine Hp were immobilized in a 96-well plate based on the method described in Example 5, and blocking was performed.
(§2) The plate was washed 3 times with PBST, Goat anti Human IgG (H&L)-HRP or Rabbit anti-Mouse IgG-HRP diluted with 1% BSA-PBS was dispensed into the plate at 50 μL/well, and the plate was left to stand for 1 hour at room temperature. The color development and the absorbance measurement to be carried out thereafter were performed based on the method described in Example 5. By regarding the absorbance of the well, in which each of the anti-Hp antibodies was reacted with the recombinant human Hp, as 1, a ratio of the absorbance, in which the sample was reacted, to the aforementioned absorbance was calculated.

In experiment [4] the target is T2, human haptoglobin (human Hp) (human, UniProt P00738 19-160; P00738 162-406).
T2 sequence 1: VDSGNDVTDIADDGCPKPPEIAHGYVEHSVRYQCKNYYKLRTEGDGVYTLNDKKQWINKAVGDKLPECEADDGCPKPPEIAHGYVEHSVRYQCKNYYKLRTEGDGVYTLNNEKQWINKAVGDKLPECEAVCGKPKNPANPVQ
T2 sequence 2: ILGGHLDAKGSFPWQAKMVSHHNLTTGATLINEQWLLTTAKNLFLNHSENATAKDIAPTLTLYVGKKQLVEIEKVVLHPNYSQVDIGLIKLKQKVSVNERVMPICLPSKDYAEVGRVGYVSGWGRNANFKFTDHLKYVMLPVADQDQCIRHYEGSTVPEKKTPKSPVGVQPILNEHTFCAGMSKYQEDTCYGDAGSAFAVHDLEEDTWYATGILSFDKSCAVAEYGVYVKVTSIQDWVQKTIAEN
As to the kind of experiment: competitive ELISA on plate-coated human Hp (-: absorbance less than 0.5); competitor: anti-Hp polyclonal antibody. The protocol:
The immobilized solution was removed, 1% BSA-PBS was then dispensed into the plate at 100 μL/well, and the plate was left to stand for 1 hour at room temperature for blocking and washed 3 times with PBST.
The plate was washed 3 times of PBST, and ABTS was dispensed into the plate at 50 μL/well for developing color. At a point in time when color was appropriately developed, 1% SDS was dispensed into the plate at 50 μL/well, and by using a plate reader, the absorbance at a sample wavelength of 415 nm and a reference wavelength of 490 nm was measured.
(In general: ELISA stands for enzyme-linked immunosorbent assay.)

Experiment [5] concerns the target T2, human haptoglobin (human Hp). As to the kind of experiment: SEC-MALS of antibody 0.5 mg/mL mixed with human Hp 1.3 mg/mL, 16 hours at 37° C. The protocol: In order to check whether the anti-Hp antibodies have bound to the human Hp and formed a immune complex, analysis was performed by gel filtration chromatography (Size Exclusion Chromatography, SEC) (column; BioSep SEC-s4000, 7.8×300 mm, Phenomenex Inc.) using HPLC (Prominence, Shimadzu Corporation).
The column was equilibrated using a mobile phase [50 mmol/L phosphate buffer (pH 7.0, 500 mmol/L NaCl)], the anti-Hp antibodies and the human Hp (Japan Blood Products Organization) were diluted with PBS and mixed together such that the concentrations of the anti-Hp antibodies and the human Hp became 0.5 mg/mL and 1.3 mg/mL, respectively, and the mixed solution was left to stand for 16 hours at 37° C.
The components contained in […] of the mixed solution were separated at a flow rate of 0.5 mL/min. Then, for each peak detected at a wavelength of 280 nm, a molecular weight was calculated using a maximum value of scattering intensity detected by a multi angle light scattering (MALS) detector (miniDAWN TREOS, Wyatt Technology Corporation).
On the technique in general: SEC sorts molecules by how far they enter the pores of the column.

Experiment [6] addresses T3, Chimera F (human with bovine residues, UniProt P00738 19-406).
T3 construct: Expi293F; also called human Hp/bovine Hp chimeric protein
T3 chain: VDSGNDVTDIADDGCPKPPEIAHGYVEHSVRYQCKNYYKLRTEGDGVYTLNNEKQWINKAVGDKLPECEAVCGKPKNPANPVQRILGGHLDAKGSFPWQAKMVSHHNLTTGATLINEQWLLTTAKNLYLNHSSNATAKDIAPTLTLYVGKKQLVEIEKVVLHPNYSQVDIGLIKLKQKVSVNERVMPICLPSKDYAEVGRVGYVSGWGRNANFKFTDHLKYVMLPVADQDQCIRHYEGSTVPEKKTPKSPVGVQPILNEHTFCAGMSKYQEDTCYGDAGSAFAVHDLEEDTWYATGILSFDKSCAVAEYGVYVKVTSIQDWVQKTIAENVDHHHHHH
Briefly: ELISA on plate-coated antigen (-: absorbance ratio less than 0.5). The protocol: as §1, §2

histidine tag-conjugated soluble CD16a (V) (human), sequence (P08637 other isoform, or with tags, fused parts or gaps limits assumed): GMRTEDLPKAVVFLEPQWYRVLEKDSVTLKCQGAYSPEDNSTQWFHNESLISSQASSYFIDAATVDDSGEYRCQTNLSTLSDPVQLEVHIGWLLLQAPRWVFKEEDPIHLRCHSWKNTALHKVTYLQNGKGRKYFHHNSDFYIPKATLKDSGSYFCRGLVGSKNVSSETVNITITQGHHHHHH
full-length CD16a (V) expressed on CHO/DG44 cells (human), sequence (P08637 17-254 F176V limits assumed): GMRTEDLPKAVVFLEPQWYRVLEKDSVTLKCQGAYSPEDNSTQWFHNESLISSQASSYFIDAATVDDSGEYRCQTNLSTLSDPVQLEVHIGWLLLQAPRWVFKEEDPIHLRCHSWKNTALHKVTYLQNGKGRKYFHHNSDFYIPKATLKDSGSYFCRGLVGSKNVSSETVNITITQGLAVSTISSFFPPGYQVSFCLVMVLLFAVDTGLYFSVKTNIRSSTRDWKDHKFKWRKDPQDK

Consider “Intravenous immunoglobulin (IVIG) (antibody)”, for which the EC50 (usually the concentration giving half of the maximal effect) in experiment [1] was 1.06 µg/mL. For the same molecule, the IC50 (usually the concentration that gives 50% inhibition) in experiment [2] amounted to 540 µg/mL.

B1: anti-Hp antibody #105 (antibody, V domains shown)
VH: QVHLQQWGAGLLKPSETLSLTCNVYGSSLSQYFWNWIRQPPGKGLEWMGRITSGGSTNYNPSLESRVTIIVDTFKNQFSLKLVSVTAADTAVYYCARGPFVEGAAPTVLGTGFSIWGQGTMVTVSS
VL: EIVLTQSPGTLSLSPGERATLSCRASQSVNNNYLAWYQQKPGQAPRLLIYDASKRATGIPDRFSGSGSGTDFTLTISRLEPEDFAVYYCQQYGHSRPYTFGQGAKLEIK
notes: Recombinant human IgG1/kappa antibody
Take B1: in experiment [1], the EC50 was 0.405 µg/mL. For the same molecule, in experiment [3], the “absorbance ratio to recombinant human Hp” value was less than 0.5. Besides, in experiment [4], the “absorbance (415 nm, reference 490 nm)” value was less than 0.5.

B2: anti-Hp antibody #4 (antibody, V domains shown)
VH: EVHLLESGGGLVQPGGSLRLSCQASGFTFNSNAMSWVRRAPGKGLEWISSIGANTNYIYTADSVKGRFTISRDNSKNTLYLQMNSLRAEDTAAYYCAKNRDRYSYDAWSVWGQGTTVTVSS
VL: DIQMTQSPSTLSASVGDRVTITCRASQSIDIWLAWYQQKPGKAPKLLIYEASSLESEVPSRFSGSGSGTEFTLTISSLQPDDFATYYCQAYNSNYPYAFGQGTNLEIK
notes: also called clone #4; #4 antibody
B2 had an EC50 in experiment [1] of 1.99 µg/mL. Besides, the “Peak molecular weight of immune complex” value in experiment [5] was 341000.

B3: anti-Hp antibody #6 (antibody, V domains shown)
VH: EVQLLESGGGLVQPGGSLKLSCVASEFTFSNYAMSWVRQAPGKGLEWVSTFSSGGSRTFYADSVRGRFTISRDNSNNMLFLQIDSLRAEDTAVYYCAKAQFVGHWAQYNYWGQGALVTVSS
VL: DIQMTQSPSSLSASVGDRVAITCRASQGIRNYLAWYQQKPGKVPKLLIYDAFILQSGVPSRFSGSGSGTDFTLTISSLQPEDVATYYCQKSDSPPLTFGGGTKVEIK
notes: Recombinant human IgG1/kappa antibody; also called clone #6; #6 antibody
Molecule B3 showed an EC50 in experiment [1] of 0.805 µg/mL. In experiment [4], the “absorbance (415 nm, reference 490 nm)” value was less than 0.5.

B4: anti-Hp antibody #27 (antibody, V domains shown)
VH: EQQLVESGGGLVQPGRSLTLSCVASGFTFGDYAMGWVRQAPGKGLEWVSSISSDALYKGYVDSVKGRFTVSRDNAKNSLYLQMDNLRTEDTAFYYCTKDLRSGNFGQYGDWGQGTLVTVSS
VL: AIQMTQSPSSLSASVGDRVTITCRASQGIGSDLTWYQQEPGKAPKLLIYAASTLQSGVPSRFSGGGSGTDFTLTISSLQPEDAATYYCLQSHGYPLTFGQGTKLEIK
notes: Recombinant human IgG1/kappa antibody; also called clone #27; #27 antibody
B4: the EC50 in experiment [1] amounted to 0.763 µg/mL. The “Peak molecular weight of immune complex” value in experiment [5] is 523000. Moreover, in experiment [2], the IC50 stood at 238 µg/mL. Also, the “absorbance ratio to recombinant human Hp” value in experiment [6] is less than 0.5.

B5: anti-Hp antibody #96-6 (antibody, V domains shown)
VH: EVQLLESGGGLVQPGGSLRLSCEASGSSVSSHFMTWVRQSPGKGLEWVSSISPNPAYTYYANSVKGRFTISRDNSKNMLYLQMNDLRAEDTARYYCARRSDFDTWGQGTMLTVSS
VL: DIQMTQSPSAMSASVGDRVTITCRASRYIGKDLAWFQQKPGEVPKRLIYDASSLQSGVPSRFSGSGSGTEFTLTVSNLQPEDLGTYYCQHYYTFPLTFGPGTKVDIK
notes: Recombinant human IgG1/kappa antibody; also called clone #96-6; Labeled #96-6
In experiment [1], B5 returned an EC50 of 0.473 µg/mL. Besides, the “absorbance (415 nm, reference 490 nm)” value in experiment [4] is less than 0.5.
